This passage reports ECL signal results from patent US20120316071A1 (published 2012).

Experiment [1] has as its target T1, rHuman HGF R/c-MET/Fc Chimera, CF (R&D Systems Cat#358-MT/CF) (human, UniProt P08581 25-932).
T1 construct: Bought Fc chimera; also called HGF R/Fc; hepatocyte growth factor receptor; Fc part of the bought chimera not given
Kind of experiment: Multispot ECL (MSD) titration; antigen spotted on plate; Fab 392.5 nM; blank spot 338.

For experiment [2], the target named is T2, rHuman IGF-1 sR (IGF-1 sR), CF (R&D Systems Cat#391-GR) (human, UniProt P08069 31-932).
T2 construct: Bought soluble receptor; also called insulin-like growth factor-1 soluble receptor
Described as above.

In experiment [3] the target is T3, rHuman P-Cadherin/Fc Chimera, CF (R&D Systems Cat#861-PC) (human, UniProt P22223 108-654).
T3 construct: Bought Fc chimera; Fc part of the bought chimera not given
Described as above.

For experiment [4], the target named is T4, rHuman Notch-1/Fc Chimera, CF (R&D Systems Cat#3647-TK) (human, UniProt P46531 19-526).
T4 construct: Bought Fc chimera; Fc part of the bought chimera not given
The description is as above.

Experiment [5] concerns the target T5, Recombinant Human DLL4 (R&D Systems Cat#1506-D4/CF) (human, UniProt Q9NR61 27-524).
T5 construct: Bought recombinant protein; also called delta-like protein 4; rHuman DLL4
The experiment is described as above.

Experiment [6] concerns the target T6, rHuman Erythropoietin R/Fc Chimera, CF (R&D Systems Cat#963-ER) (human, UniProt P19235 25-250).
T6 construct: Bought Fc chimera; also called EPO R/Fc; EPO R; Fc part of the bought chimera not given
T6 sequence (looked up): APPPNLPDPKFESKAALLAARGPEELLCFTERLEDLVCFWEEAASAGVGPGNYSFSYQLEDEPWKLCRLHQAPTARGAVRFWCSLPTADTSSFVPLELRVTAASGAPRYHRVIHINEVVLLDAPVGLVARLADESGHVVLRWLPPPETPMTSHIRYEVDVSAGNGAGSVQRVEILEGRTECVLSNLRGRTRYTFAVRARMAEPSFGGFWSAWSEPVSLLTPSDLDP
The experiment is described as above.

Experiment [7] has as its target T7, rHuman ErbB2/Fc Chimera, CF (R&D Systems Cat#1129-ER) (human, UniProt P04626 23-652).
T7 construct: Bought Fc chimera; also called human epidermal growth factor 2 receptor; Fc part of the bought chimera not given
The description is as above.

The target in experiment [8] is T8, rHuman CD44/Fc Chimera, CF (R&D Systems Cat#3660-CD) (human, UniProt P16070 21-220).
T8 construct: Bought Fc chimera; Fc part of the bought chimera not given
The description is as above.

The target of experiment [9] is T2, rHuman IGF-1 sR (IGF-1 sR), CF (R&D …). Kind of experiment: Multispot ECL (MSD) titration; antigen spotted on plate; Fab 58.1 nM; blank spot 225.
For experiment [10], the target named is T3, rHuman P-Cadherin/Fc Chimera, CF (R&D …). The experiment is described as above.
For experiment [11], the target named is T4, rHuman Notch-1/Fc Chimera, CF (R&D …). The description is as above.
Experiment [12] concerns the target T5, Recombinant Human DLL4 (R&D Systems …). The description is as above.
The target in experiment [13] is T7, rHuman ErbB2/Fc Chimera, CF (R&D …). Described as above.
The target of experiment [14] is T8, rHuman CD44/Fc Chimera, CF (R&D Systems …). Described as above.
Experiment [15] concerns the target T9, rHuman Erythropoietin R/Fc Chimera, CF (R&D Systems Cat#963-ER) (human, UniProt P19235 25-250).
T9 construct: Bought Fc chimera; also called EPO R/Fc; Epo R; Fc part of the bought chimera not given
T9 sequence (looked up): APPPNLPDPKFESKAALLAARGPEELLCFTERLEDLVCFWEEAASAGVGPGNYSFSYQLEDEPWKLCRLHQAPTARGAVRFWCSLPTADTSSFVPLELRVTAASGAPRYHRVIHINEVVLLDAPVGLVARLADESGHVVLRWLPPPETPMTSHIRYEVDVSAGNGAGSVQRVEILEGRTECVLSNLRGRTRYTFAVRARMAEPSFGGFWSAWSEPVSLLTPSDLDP
Briefly: MSD Multispot ECL, antigen spotted on plate, Fab at 30 nM; blank spot 213.

Experiment [16] concerns the target T10, rHuman P-Cadherin/Fc Chimera, CF (R&D Systems Cat#861-PC) (human, UniProt P22223 108-654).
T10 construct: Bought Fc chimera; Fc part of the bought chimera not given
Described as above.

Experiment [17] has as its target T11, rHuman Notch-1/Fc Chimera, CF (R&D Systems Cat#3647-TK) (human, UniProt P46531 19-526).
T11 construct: Bought Fc chimera; Fc part of the bought chimera not given
The description is as above.

The target in experiment [18] is T12, rHuman CD44/Fc Chimera, CF (R&D Systems Cat#3660-CD) (human, UniProt P16070 21-220).
T12 construct: Bought Fc chimera; Fc part of the bought chimera not given
The description is as above.

Experiment [19] addresses T13, Recombinant Human DLL4 (R&D Systems Cat#1506-D4/CF) (human, UniProt Q9NR61 27-524).
T13 construct: Bought recombinant protein; also called rHuman DLL4; delta-like protein 4
The description is as above.

T1 sequence (P08581 25-932, change not shown): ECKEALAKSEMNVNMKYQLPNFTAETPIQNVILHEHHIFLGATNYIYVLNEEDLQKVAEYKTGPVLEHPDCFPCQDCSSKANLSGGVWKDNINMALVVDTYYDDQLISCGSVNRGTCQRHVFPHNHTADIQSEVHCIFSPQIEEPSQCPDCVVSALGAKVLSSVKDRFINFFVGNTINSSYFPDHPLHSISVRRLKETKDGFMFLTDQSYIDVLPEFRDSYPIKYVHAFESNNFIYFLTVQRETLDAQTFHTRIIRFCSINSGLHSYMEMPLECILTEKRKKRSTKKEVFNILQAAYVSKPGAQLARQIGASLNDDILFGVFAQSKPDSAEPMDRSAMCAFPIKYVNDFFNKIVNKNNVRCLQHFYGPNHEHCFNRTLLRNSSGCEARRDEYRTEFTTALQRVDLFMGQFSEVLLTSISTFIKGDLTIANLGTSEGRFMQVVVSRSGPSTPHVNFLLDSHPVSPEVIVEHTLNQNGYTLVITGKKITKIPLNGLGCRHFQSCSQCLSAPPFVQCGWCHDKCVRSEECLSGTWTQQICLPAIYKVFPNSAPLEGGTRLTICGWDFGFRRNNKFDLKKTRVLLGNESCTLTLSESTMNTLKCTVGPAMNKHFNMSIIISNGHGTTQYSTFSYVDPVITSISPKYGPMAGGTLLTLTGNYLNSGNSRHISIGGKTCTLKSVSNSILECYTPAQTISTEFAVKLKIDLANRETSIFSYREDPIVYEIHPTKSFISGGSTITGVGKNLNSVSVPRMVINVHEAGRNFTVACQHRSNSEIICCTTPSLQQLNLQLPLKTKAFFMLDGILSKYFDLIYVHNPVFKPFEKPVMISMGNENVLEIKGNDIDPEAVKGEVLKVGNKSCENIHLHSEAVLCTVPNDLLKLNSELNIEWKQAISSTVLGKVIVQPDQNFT

B1: Fab VH1-46_IGHD3-10*01_IGHJ4*01 & O1_IGKJ1*01 (Fab, V domains shown)
VH: QVQLVQSGAEVKKPGASVKVSCKASGYTFTSYYMHWVRQAPGQGLEWMGIINPSGGSTSYAQKFQGRVTMTRDTSTSTVYMELSSLRSEDTAVYYCAREYYYGSGSYYNDYFDYWGQGTLVTVSS
VL: DIVMTQTPLSLPVTPGEPASISCRSSQSLLDSDDGNTYLDWYLQKPGQSPQLLIYTLSYRASGVPDRFSGSGSGTDFTLKISRVEAEDVGVYYCMQRIEFPSWTFGQGTKVEIKR
notes: Germline library Fab expressed in E. coli; VH was cloned into Plasmid A (CH1 constant region, His6 and Flag tags); The kappa VL was cloned into Plasmid C (kappa CL)
For B1, the ECL signal in experiment [1] was 581; in experiment [2] it was 466; in [3] it was 459; in [4], 749; in experiment [5], 735; in experiment [6], 5860. Moreover, the ECL signal in experiment [7] was determined as 539; in experiment [8], 498.

B2: Fab VH1-46_IGHD6-13*01_IGHJ4*01 & O1_IGKJ1*01 (Fab, V domains shown)
VH: QVQLVQSGAEVKKPGASVKVSCKASGYTFTSYYMHWVRQAPGQGLEWMGIINPSGGSTSYAQKFQGRVTMTRDTSTSTVYMELSSLRSEDTAVYYCAREGYSSSWYDYFDYWGQGTLVTVSS
VL: DIVMTQTPLSLPVTPGEPASISCRSSQSLLDSDDGNTYLDWYLQKPGQSPQLLIYTLSYRASGVPDRFSGSGSGTDFTLKISRVEAEDVGVYYCMQRIEFPSWTFGQGTKVEIKR
notes: as for B1
As for B2, the ECL signal is 343 in [9]; 478 in experiment [10]; 388 in [11]; 1880 in [12]; 322 in [13]; 375 in [14].

B3: Fab VH6-1_IGHD3-3*01_IGHJ4*01 & V4-3_IGLJ4*01 (Fab, V domains shown)
VH: QVQLQQSGPGLVKPSQTLSLTCAISGDSVSSNSAAWNWIRQSPSRGLEWLGRTYYRSKWYNDYAVSVKSRITINPDTSKNQFSLQLNSVTPEDTAVYYCAREYYDFWSGYYTDYFDYWGQGTLVTVSS
VL: QPVLTQPTSLSASPGASARLTCTLRSGINLGSYRIFWYQQKPESPPRYLLSYYSDSSKHQGSGVPSRFSGSKDASSNAGILVISGLQSEDEADYYCMIWHSSASFVFGGGTQLIIL
notes: Tested as a purified germline Fab made in E. coli; The VH was cloned into plasmid A (CH1 constant region, His6 and Flag tags) and the lambda VL into plasmid E (lambda CL)
On to B3, for which the ECL signal is 325 in [15]; 440 in [16]; 425 in experiment [17]; 484 in experiment [18]; 736 in [19].
